Experimental data published in patent US20200157190A1.

How the values were obtained:
Antigen 1 [1] = assay: ELISA, supernatant 1 TO 4, Plate 1 (Antigen 1), column 3, BLANK 0.07
Antigen 2 [2] = assay: ELISA, supernatant 1 TO 4, Plate 2 (Antigen 2), column 3, BLANK 0.06
Antigen 1 [3] = assay: ELISA, supernatant 1 TO 16, Plate 1 (Antigen 1), column 3, BLANK 0.07
Antigen 2 [4] = assay: ELISA, supernatant 1 TO 16, Plate 2 (Antigen 2), column 3, BLANK 0.06
Antigen 1 [5] = assay: ELISA, supernatant 1 TO 64, Plate 1 (Antigen 1), column 3, BLANK 0.07
Antigen 2 [6] = assay: ELISA, supernatant 1 TO 64, Plate 2 (Antigen 2), column 3, BLANK 0.06
Antigen 1 [7] = assay: ELISA, supernatant 1 TO 256, Plate 1 (Antigen 1), column 3, BLANK 0.07
Antigen 2 [8] = assay: ELISA, supernatant 1 TO 256, Plate 2 (Antigen 2), column 3, BLANK 0.06
Antigen 1 [9] = assay: ELISA, supernatant 1 TO 1024, Plate 1 (Antigen 1), column 3, BLANK 0.07
Antigen 2 [10] = assay: ELISA, supernatant 1 TO 1024, Plate 2 (Antigen 2), column 3, BLANK 0.06
Antigen 1 [11] = assay: ELISA, supernatant 1 TO 4096, Plate 1 (Antigen 1), column 3, BLANK 0.07
Antigen 2 [12] = assay: ELISA, supernatant 1 TO 4096, Plate 2 (Antigen 2), column 3, BLANK 0.06
Antigen 1 [13] = assay: ELISA, supernatant UNDILUTED, Plate 1 (Antigen 1), column 3, BLANK 0.07
Antigen 2 [14] = assay: ELISA, supernatant UNDILUTED, Plate 2 (Antigen 2), column 3, BLANK 0.06

B1: Heavy Chain Construct 4 with Light Chain Construct 2 (VH2-VH1/VL2) (antibody)
heavy: QSLEESGGRLVSPGTPLTLTCTASGFSLSSNAMGWVRQAPGEGLEYIGIIRPGGSTYYASWAKGRFTISKTSSTTVDLKMTSLTTEDTATYFCARAWDIWGPGTLVTVSLGQPKAPSVFPLAPCCGDTPSSTVTLGCLVKGYLPEPVTVTWNSGTLTNGVRTFPSVRQSSGLYSLSSVVSVTSSSQPVTCNVAHPATNTKVDKTVAPSTCSKPTCPPPELLGGRPQPQPQPQPQPQPQPQPQPQPQPQPQPQPQPQSRQSVEESGGRLVTPGTPLTLTCTVSGFSLNTNAIRWVRQAPGKGLEWIGAIDASGNTYYASWAKGRFTISKTSTTVDLKITSPTTEDTATYFCNRFNTANIWGPGTLVTVSSGQPKAPSVFPLAPCCGDTPSSTVTLGCLVKGYLPEPVTVTWNSGTLTNGVRTFPSVRQSSGLYSLSSVVSVTSSSQPVTCNVAHPATNTKVDKTVAPSTCSKPTCPPPELLGGPSVFIFPPKPKDTLMISRTPEVTCVVVDVSQDDPEVQFTWYINNEQVRTARPPLREQQFNSTIRVVSTLPIAHQDWLRGKEFKCKVHNKALPAPIEKTISKARGQPLEPKVYTMGPPREELSSRSVSLACMINGFYPSDISVEWEKNGKAEDNYKTTPAVLDSDGSYFLYSKLSVPTSEWQRGDVFTCSVMHEALHNHYTQKSISRSPGK
light: AFELTQTPSSVEAAVGGTVTIRCQASQSISNQLSWYQQKPGQPPKRLIYRASTLASGVPARFKGSGSGTAFTLTISDLECADGATYYCQSFYYTDVIDYNAFGGGTEVVVTGDPVAPTVLIFPPAADQVATGTVTIVCVANKYFPDVTVTWEVDGTTQTTGIENSKTPQNSADCTYNLSSTLTLTSTQYNSHKEYTCKVTQGTTSVVQSFNRGDC
Work on B1 yielded an ELISA plate reading (Antigen 1 [1]) of 0.45, an ELISA plate reading (Antigen 2 [2]) of 1.81 and an ELISA plate reading (Antigen 1 [3]) of 0.16. The ELISA plate reading (Antigen 2 [4]) was 1.61, the ELISA plate reading (Antigen 1 [5]) was 0.1 and the ELISA plate reading (Antigen 2 [6]) was 1.24. For the same binder, the ELISA plate reading (Antigen 1 [7]) was 0.07, the ELISA plate reading (Antigen 2 [8]) was 0.52 and the ELISA plate reading (Antigen 1 [9]) was 0.06. For the same binder, the ELISA plate reading (Antigen 2 [10]) was 0.21, the ELISA plate reading (Antigen 1 [11]) was 0.08 and the ELISA plate reading (Antigen 2 [12]) was 0.14. The ELISA plate reading (Antigen 1 [13]) was 0.66 and the ELISA plate reading (Antigen 2 [14]) was 2.49.
